These results are taken from publication PMC6581175, “Versatile Oxidase and Dehydrogenase Activities of Bacterial Pyranose 2-Oxidase Facilitate Redox Cycling with Manganese Peroxidase In Vitro” (Applied and Environmental Microbiology, 2019).

For one series, the target named is T1, KaPOx (Kitasatospora aureofaciens, UniProt A0A1E7NAU4).
T1 construct: gene HS99_0024835
T1 sequence (A0A1E7NAU4 1-545): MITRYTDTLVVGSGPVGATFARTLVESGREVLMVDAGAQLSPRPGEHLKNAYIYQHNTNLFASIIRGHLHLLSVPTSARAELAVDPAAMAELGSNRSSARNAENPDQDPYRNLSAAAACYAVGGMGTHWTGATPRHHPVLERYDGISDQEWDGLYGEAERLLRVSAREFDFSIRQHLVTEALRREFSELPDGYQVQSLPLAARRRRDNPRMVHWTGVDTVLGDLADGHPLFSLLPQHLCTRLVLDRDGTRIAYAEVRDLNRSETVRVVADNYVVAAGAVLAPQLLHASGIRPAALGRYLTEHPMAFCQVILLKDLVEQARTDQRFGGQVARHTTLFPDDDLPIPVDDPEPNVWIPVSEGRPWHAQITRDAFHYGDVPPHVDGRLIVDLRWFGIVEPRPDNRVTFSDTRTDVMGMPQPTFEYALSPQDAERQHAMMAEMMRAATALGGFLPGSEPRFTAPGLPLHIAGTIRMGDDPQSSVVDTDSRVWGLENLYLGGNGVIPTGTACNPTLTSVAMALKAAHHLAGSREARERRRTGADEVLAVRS
In words: spectrophotometric electron acceptor reduction. As to conditions: apparent, 30 mM D-glucose, nitrogen-bubbled solutions, 50 mM Britton-Robinson pH 7.5, 30°C, kcat per dimer.

The test system of series [1] is CCn1c(=N[N]c2sc3cc(S(=O)(=O)O)ccc3[n+]2CC)sc2cc(S(=O)(=O)O)ccc21. Description: purified protein. As to conditions: pH 7.5; 30.0 °C.
Substrate in series [2]: O=C1O[C@H](CO)[C@@H](O)[C@H](O)[C@H]1O
Description: purified protein. As to conditions: apparent, electron donor, O2 at air saturation (about 250 uM), 50 mM Britton-Robinson pH 7.5, 30°C, kcat per dimer. In kind it is biochemical, Kitasatospora aureofaciens.

Substrate in series [3]: O=C1C(Cl)=CC(=Nc2ccc(O)cc2)C=C1Cl
Description: purified protein. As to conditions: apparent, electron acceptor, 30 mM D-glucose, nitrogen-bubbled solutions, 50 mM Britton-Robinson pH 7.5, 30°C, kcat per dimer.

Substrate in series [4]: O=C1C=CC(=O)C=C1
Description: purified protein. As to conditions: apparent, electron acceptor, 30 mM D-glucose, nitrogen-bubbled solutions, 50 mM Britton-Robinson pH 7.5, 30°C, kcat per dimer.

As usually defined, the Km is the substrate concentration at which the rate is half of its maximum. Take Ferrocenium ion: the Michaelis-Menten constant (Km) on KaPOx was found to be 1030 ± 1000 µM.

A word on the Vmax: it is the top rate of the reaction or transport when substrate is in excess. By kcat/Km is commonly meant the turnover number divided by the Michaelis constant. Regarding KaPOx (Kitasatospora aureofaciens), in series [1], the Km stood at 40 ± 0 µM, the maximal velocity (Vmax) was determined as 6.1 µmol/min/mg and the kcat/Km amounted to 309000 M⁻¹ s⁻¹.

B1: KaPOx (Kitasatospora aureofaciens) (protein)
chain: T1 sequence (A0A1E7NAU4 1-545)
notes: full-length synthetic gene, C-terminal 6xHis kept, N-terminal T7 tag excluded, pET-21b(+), E. coli T7 Express; no signal peptide predicted
In general, kcat refers to the maximal rate divided by the concentration of active sites. As for B1, in “purified protein [2]”, the Km is 28700 ± 2400 µM, the Vmax turned out to be 0.8 µmol/min/mg, the kcat is 1.8 ± 0.1 s⁻¹ and the kcat/Km came to 60 M⁻¹ s⁻¹. Also, in the series “purified protein [3]”, the Michaelis constant (Km) turned out to be 30 ± 0 µM, the maximal velocity (Vmax) worked out at 4.4 µmol/min/mg, the kcat stood at 9.4 ± 1.1 s⁻¹ and the kcat/Km came to 313000 M⁻¹ s⁻¹. In “purified protein [4]”, the Km came out at 80 ± 100 µM, the maximal velocity (Vmax) came to 12.2 µmol/min/mg, the catalytic constant (kcat) turned out to be 24.9 ± 7.1 s⁻¹ and the kcat/Km is 311000 M⁻¹ s⁻¹.
